Laboratory results as given in publication PMC10786891, “Massively parallel profiling of RNA-targeting CRISPR-Cas13d”.
Residue numbers refer to the chain shown, from its start. In names and notes the source's numbering stands.

B1: target 1 U10A,G13A (mixed)
RNA 1: CACCCGUGCAAAAAUGCAGGGGUCUAAAACUGAGCGGAUAACCUCUCUAUGG
RNA 2: GGGAAUGGAUCCACAUCUACGAAUUCGUACCAUAGAGAAGUAAUCCGCUCACCGAGAUCGGAAGAGCACACGU
B2: target 1 insC 3' of 18,insC 3' of 15 (mixed)
RNA 1: B1 RNA 1
RNA 2: GGGAAUGGAUCCACAUCUACGAAUUCGUACCAUACGAGCAGGUUAUCCGCUCACCGAGAUCGGAAGAGCACACGU
B3: target 1 insA 3' of 19,insG 3' of 3 (mixed)
RNA 1: B1 RNA 1
RNA 2: GGGAAUGGAUCCACAUCUACGAAUUCGUACCAUAAGAGAGGUUAUCCGCUGCACCGAGAUCGGAAGAGCACACGU
B4: target 1 U3A,C6A (mixed)
RNA 1: B1 RNA 1
RNA 2: B1 RNA 2 with A39G, A42U, C46A, U49A
B5: target 1 insC 3' of 20,insU 3' of 7 (mixed)
RNA 1: B1 RNA 1
RNA 2: B3 RNA 2 with U33C, A34U, C47U, G48C, C49G, U50C, G51U
B6: target 1 insA 3' of 22,insA 3' of 13 (mixed)
RNA 1: B1 RNA 1
RNA 2: B2 RNA 2 with C31A, A32C, U33A, A34U, C35A, C39A, A40G, G41A
B7: target 1 G12C,G13C (mixed)
RNA 1: B1 RNA 1
RNA 2: B1 RNA 2 with A39C, G40C, A42U
B8: target 1 insU 3' of 22,insG 3' of 6 (mixed)
RNA 1: B1 RNA 1
RNA 2: B3 RNA 2 with C31U, A32C, U33A, A34U, C49G, U50C, G51U
B9: target 1 insU 3' of 18,insA 3' of 10 (mixed)
RNA 1: B1 RNA 1
RNA 2: B2 RNA 2 with C35U, C39A, A40G, G42U, U44A
B10: target 1 insG 3' of 16,insC 3' of 16 (mixed)
RNA 1: B1 RNA 1
RNA 2: B2 RNA 2 with C35G, G36A, A37G, G38C, C39G
B11: target 1 insC 3' of 12,insG 3' of 9 (mixed)
RNA 1: B1 RNA 1
RNA 2: GGGAAUGGAUCCACAUCUACGAAUUCGUACCAUAGAGAGGCUUAGUCCGCUCACCGAGAUCGGAAGAGCACACGU
B12: target 1 A9U,A16G (mixed)
RNA 1: B1 RNA 1
RNA 2: B1 RNA 2 with A36G, A39G, A42U, A43U
B13: target 1 C4U,C6U (mixed)
RNA 1: B1 RNA 1
RNA 2: B1 RNA 2 with A39G, A42U, C46U, C48U
B14: target 1 G12C,C21U (mixed)
RNA 1: B1 RNA 1
RNA 2: B1 RNA 2 with C31U, A39G, G40C, A42U
B15: target 1 insC 3' of 19,insA 3' of 3 (mixed)
RNA 1: B1 RNA 1
RNA 2: B3 RNA 2 with A34C, G51A
B16: target 1 insA 3' of 15,insU 3' of 5 (mixed)
RNA 1: B1 RNA 1
RNA 2: B11 RNA 2 with G39A, C41G, G45U, U46C, C48G, G49U
B17: target 1 insA 3' of 5,insG 3' of 2 (mixed)
RNA 1: B1 RNA 1
RNA 2: GGGAAUGGAUCCACAUCUACGAAUUCGUACCAUAGAGAGGUUAUCCGACUCGACCGAGAUCGGAAGAGCACACGU
B18: target 1 C7U,U8A (mixed)
RNA 1: B1 RNA 1
RNA 2: B1 RNA 2 with A39G, A42U, U44A, C45U
B19: target 1 insU 3' of 5 (mixed)
RNA 1: B1 RNA 1
RNA 2: GGGAAUGGAUCCACAUCUACGAAUUCGUACCAUAGAGAGGUUAUCCGUCUCACCGAGAUCGGAAGAGCACACGU
B20: target 1 C4A,U11G (mixed)
RNA 1: B1 RNA 1
RNA 2: B1 RNA 2 with A39G, U41G, A42U, C48A
B21: target 1 insA 3' of 11,insU 3' of 2 (mixed)
RNA 1: B1 RNA 1
RNA 2: B17 RNA 2 with U42A, A43U, U44A, C45U, G47C, A48G, G52U
B22: target 1 G5A,U8A (mixed)
RNA 1: B1 RNA 1
RNA 2: B1 RNA 2 with A39G, A42U, U44A, G47A
B23: target 1 insU 3' of 18,insU 3' of 18 (mixed)
RNA 1: B1 RNA 1
RNA 2: B2 RNA 2 with C35U, G36U, A37G, G38A, C39G
B24: target 1 G12A,C21A (mixed)
RNA 1: B1 RNA 1
RNA 2: B1 RNA 2 with C31A, A39G, G40A, A42U
B25: target 1 C2G,U3G (mixed)
RNA 1: B1 RNA 1
RNA 2: B1 RNA 2 with A39G, A42U, U49G, C50G
B26: target 1 G13C,G15A (mixed)
RNA 1: B1 RNA 1
RNA 2: B1 RNA 2 with G37A, A39C, A42U
B27: target 1 insU 3' of 22,insC 3' of 20 (mixed)
RNA 1: B1 RNA 1
RNA 2: B2 RNA 2 with C31U, A32C, U33A, A34C, C35U, G36A, A37G, G38A, C39G
B28: target 1 del5 (mixed)
RNA 1: B1 RNA 1
RNA 2: GGGAAUGGAUCCACAUCUACGAAUUCGUACCAUAGAGAGGUUAUCCCUCACCGAGAUCGGAAGAGCACACGU
B29: target 1 insA 3' of 21,insA 3' of 4 (mixed)
RNA 1: B1 RNA 1
RNA 2: B3 RNA 2 with U33A, A34U, U50A, G51U
B30: target 1 U3G,G15U (mixed)
RNA 1: B1 RNA 1
RNA 2: B1 RNA 2 with G37U, A39G, A42U, U49G
B31: target 1 insC 3' of 22,insA 3' of 10 (mixed)
RNA 1: B1 RNA 1
RNA 2: B2 RNA 2 with A32C, U33A, A34U, C35A, C39A, A40G, G42U, U44A
B32: target 1 insG 3' of 21,insG 3' of 3 (mixed)
RNA 1: B1 RNA 1
RNA 2: B3 RNA 2 with A32G, U33A, A34U
B33: target 1 insG 3' of 10,insA 3' of 10 (mixed)
RNA 1: B1 RNA 1
RNA 2: B11 RNA 2 with C41U, U43G, G45A
B34: target 1 G12U,A18C (mixed)
RNA 1: B1 RNA 1
RNA 2: B1 RNA 2 with A34C, A39G, G40U, A42U

Biological target: T1, EsCas13d, nuclease-dead (Eubacterium siraeum, UniProt B0MS50, R295A;H300A;R849A;H854A)
T1 sequence: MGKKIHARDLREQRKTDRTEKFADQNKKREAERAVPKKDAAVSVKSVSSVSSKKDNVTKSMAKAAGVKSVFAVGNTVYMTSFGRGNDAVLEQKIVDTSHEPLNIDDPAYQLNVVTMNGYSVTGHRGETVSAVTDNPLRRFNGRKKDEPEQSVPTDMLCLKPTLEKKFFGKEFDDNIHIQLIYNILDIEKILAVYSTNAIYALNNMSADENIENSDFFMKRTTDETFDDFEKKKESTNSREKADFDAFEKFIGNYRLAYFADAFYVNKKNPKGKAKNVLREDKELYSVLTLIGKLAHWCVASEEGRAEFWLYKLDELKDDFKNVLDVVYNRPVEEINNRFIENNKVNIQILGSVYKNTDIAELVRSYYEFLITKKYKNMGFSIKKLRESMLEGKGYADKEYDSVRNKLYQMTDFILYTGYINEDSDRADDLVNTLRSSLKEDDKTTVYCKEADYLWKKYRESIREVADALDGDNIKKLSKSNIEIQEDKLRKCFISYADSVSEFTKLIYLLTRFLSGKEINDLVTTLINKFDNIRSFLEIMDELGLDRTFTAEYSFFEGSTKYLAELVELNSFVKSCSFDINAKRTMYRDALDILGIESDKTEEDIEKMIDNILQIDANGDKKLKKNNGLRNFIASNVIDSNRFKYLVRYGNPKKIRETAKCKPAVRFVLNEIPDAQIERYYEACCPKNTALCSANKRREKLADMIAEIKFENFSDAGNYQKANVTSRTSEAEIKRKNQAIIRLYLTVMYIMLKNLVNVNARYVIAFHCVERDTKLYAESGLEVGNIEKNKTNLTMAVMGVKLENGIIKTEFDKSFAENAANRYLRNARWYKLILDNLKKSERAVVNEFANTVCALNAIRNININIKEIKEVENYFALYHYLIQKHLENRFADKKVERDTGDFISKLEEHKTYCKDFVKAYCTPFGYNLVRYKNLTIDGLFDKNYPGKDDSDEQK
Assay: crRNA (strand 1, pre-loaded); Mg2+; 40 mM Tris-HCl pH 7.5, 150 mM NaCl, 6 mM MgCl2, 1 mM DTT, 0.1% Tween-20, 0.2 mg/ml BSA; 25 C; 10 min per concentration, then washed
Settings: tags: His6-TwinStrep-SUMO cleaved; N-terminal SNAP kept (SNAP-Surface 488); label: 3' end held by stalled T7 RNA polymerase

Binder	Kd
B1	9.5 ± 1 nM
B2	56 ± 8 nM
B3	13.2 ± 0.6 nM
B4	5.02 ± 0.21 nM
B5	13.2 ± 1 nM
B6	6 ± 0.4 nM
B7	30 ± 6 nM
B8	34 ± 7 nM
B9	41.2 ± 3.1 nM
B10	31.5 ± 1.8 nM
B11	24 ± 1.2 nM
B12	67 ± 9 nM
B13	28 ± 8 nM
B14	6 ± 0.5 nM
B15	29.8 ± 2.1 nM
B16	27.9 ± 2.9 nM
B17	8.3 ± 0.7 nM

Binder	Kd
B18	12.9 ± 0.7 nM
B19	18.1 ± 2.5 nM
B20	8.4 ± 0.7 nM
B21	22.2 ± 1.1 nM
B22	45 ± 4 nM
B23	30.9 ± 2 nM
B24	34.8 ± 2.2 nM
B25	4.43 ± 0.34 nM
B26	46 ± 9 nM
B27	18.3 ± 1.4 nM
B28	10.4 ± 0.5 nM
B29	10.2 ± 1.3 nM
B30	~60 nM
B31	28.2 ± 3.4 nM
B32	43 ± 6 nM
B33	10.7 ± 0.6 nM
B34	40 ± 4 nM
